Measured values: paper PMC6637149, “Cryo-EM and directed evolution reveal how Arabidopsis nitrilase specificity is influenced by its quaternary structure” (Communications Biology, 2019)

Legend:
[1] = target: the molecule itself; test: cryo-EM structure; purified AtNIT4 filaments (~0.15 mg/ml) in 50 mM Tris-HCl pH 8.0, 100 mM NaCl, blotted at ~10% humidity, 25 °C; helical reconstruction, one helical turn treated as a single particle
[2] = target: the molecule itself; test: negative-stain electron microscopy with 3D helical reconstruction; purified NIT filaments on carbon-coated copper grids, 2% uranyl acetate; iterative helical real-space reconstruction

B1: Arabidopsis thaliana nitrilase 4 (AtNIT4), wild type (enzyme, UniProt P46011 1-355, looked up)
chain: MSMQQETSHMTAAPQTNGHQIFPEIDMSAGDSSSIVRATVVQASTVFYDTPATLDKAERLLSEAAENGSQLVVFPEAFIGGYPRGSTFELAIGSRTAKGRDDFRKYHASAIDVPGPEVERLALMAKKYKVYLVMGVIEREGYTLYCTVLFFDSQGLFLGKHRKLMPTALERCIWGFGDGSTIPVFDTPIGKIGAAICWENRMPSLRTAMYAKGIEIYCAPTADSRETWLASMTHIALEGGCFVLSANQFCRRKDYPSPPEYMFSGSEESLTPDSVVCAGGSSIISPLGIVLAGPNYRGEALITADLDLGDIARAKFDFDVVGHYSRPEVFSLNIREHPRKAVSFKTSKVMEDESV
notes: Nitrilase 4 of Arabidopsis thaliana, NP_197622.1, AT5G22300; 355 residues in all, 289 built in the model; Forms open-ended left-handed helical filaments built of dimers, so no fixed number of copies. pET-21b(+) usually adds a C-terminal His6 tag (surmised); also called AtNIT4 wt; source: E. coli BL21-CodonPlus (DE3)-RIL, pET-21b(+), purified (Ni-NTA, SEC)
binding result [1]: binds

B2: AtNIT4 R95T L169A S224Q (enzyme, Arabidopsis thaliana, UniProt P46011 1-355, looked up)
chain: MSMQQETSHMTAAPQTNGHQIFPEIDMSAGDSSSIVRATVVQASTVFYDTPATLDKAERLLSEAAENGSQLVVFPEAFIGGYPRGSTFELAIGSTTAKGRDDFRKYHASAIDVPGPEVERLALMAKKYKVYLVMGVIEREGYTLYCTVLFFDSQGLFLGKHRKLMPTAAERCIWGFGDGSTIPVFDTPIGKIGAAICWENRMPSLRTAMYAKGIEIYCAPTADQRETWLASMTHIALEGGCFVLSANQFCRRKDYPSPPEYMFSGSEESLTPDSVVCAGGSSIISPLGIVLAGPNYRGEALITADLDLGDIARAKFDFDVVGHYSRPEVFSLNIREHPRKAVSFKTSKVMEDESV
notes: Nitrilase 4 of Arabidopsis thaliana, NP_197622.1, with three substitutions selected from a site-saturation library made in the vector of the wild type; Selected by directed evolution from the AtNIT4 pET-21b(+) vector; full length is inferred from the parent construct; also called the mutant; NIT4 mutant; source: E. coli BL21-CodonPlus (DE3)-RIL, pET-21b(+), purified (Ni-NTA, SEC)
binding result [2]: binds

B3: AtNIT4 R95T (enzyme, Arabidopsis thaliana, UniProt P46011 1-355, looked up)
chain: MSMQQETSHMTAAPQTNGHQIFPEIDMSAGDSSSIVRATVVQASTVFYDTPATLDKAERLLSEAAENGSQLVVFPEAFIGGYPRGSTFELAIGSTTAKGRDDFRKYHASAIDVPGPEVERLALMAKKYKVYLVMGVIEREGYTLYCTVLFFDSQGLFLGKHRKLMPTALERCIWGFGDGSTIPVFDTPIGKIGAAICWENRMPSLRTAMYAKGIEIYCAPTADSRETWLASMTHIALEGGCFVLSANQFCRRKDYPSPPEYMFSGSEESLTPDSVVCAGGSSIISPLGIVLAGPNYRGEALITADLDLGDIARAKFDFDVVGHYSRPEVFSLNIREHPRKAVSFKTSKVMEDESV
notes: Nitrilase 4 of Arabidopsis thaliana, NP_197622.1, with the substitution R95T; Full length is inferred from the parent construct; source: E. coli BL21-CodonPlus (DE3)-RIL, pET-21b(+), purified (Ni-NTA, SEC)
binding result [2]: binds
